± gives the uncertainty stated by the source.
Test: self-splicing fitness, log relative to wild type (ln ratio); higher = more splicing; Tetrahymena group I intron in knt gene, E. coli kanamycin selection, DiMSum; sequences stand for … in CUCUCU…GGAGGGAAAAGUUAUCAGGCAUGCACCUGGUAGCUAGUCUUUAAACCAAUAGAUUGCAUCGGUUUAAAAGGCAAGACCGUCAAAUUGCGGGAAAGGGGUCAACAGCCGUUCAGUACCAAGUCUCAGGGGAAACUUUGAGAUGGCCUUGCAAAGGGUAUGGUAAUAAGCUGACGGACAUGGUCCUAACCACGCAGCCAAGUCCUAAGUCAACAGAUCUUCUGUUGAUAUGGAUGCAGUUCACAGACUAAAUGUCGGUCGGGGAAGAUGUAUUCUUCUCAUAAGAUAUAGUCGGACCUCUCCUUAAUGGGAGCUAGCGGAUGAAGUGAUGCAACACUGGAGCCGCUGGGAACUAAUUUGUAUGCGAAAGUAUAUUGAUUAGUUUUGGAGUACUCGUGGUCG
Procedure, shortened: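 Colonies from six replicate transformations of E. coli BL21(DE3) were pooled and amplicon-sequenced on an Illumina HiSeq 2500. The library placed an intron with all eight P1ex-region nucleotides randomised inside the knt kanamycin-resistance gene on pET-22b(+), and cells grew overnight at 37°C or 30°C on LB agar with or without 25 μg/mL kanamycin (plus 100 μg/mL carbenicillin, 50 μM IPTG, 0.2% rhamnose). Fitness is the DiMSum error-weighted combination of wild-type-normalised replicate fold changes, kanamycin versus none.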

Sequence: AUAUAGCAAUAUUACGUGCU
- self-splicing fitness (ln) (30 °C): -1.24 ± 0.092
- self-splicing fitness (ln) (37 °C): -0.807 ± 0.13

Sequence: ACAGAGCAAUAUUACGCUCC
- self-splicing fitness (ln) (37 °C): -1.45 ± 0.42

Sequence: AUCAAGCAAUAUUACGGGUU
- self-splicing fitness (ln) (30 °C): -3.44 ± 0.14
- self-splicing fitness (ln) (37 °C): -1.22 ± 0.11

Sequence: AACAAGCAAUAUUACGGGAA
- self-splicing fitness (ln) (30 °C): -1.57 ± 0.097
- self-splicing fitness (ln) (37 °C): -1.86 ± 0.13

Sequence: CUUUAGCAAUAUUACGCCUA
- self-splicing fitness (ln) (30 °C): -3.11 ± 0.3
- self-splicing fitness (ln) (37 °C): -1.73 ± 0.3

Sequence: CAUCAGCAAUAUUACGGUCG
- self-splicing fitness (ln) (30 °C): 0.0182 ± 0.075
- self-splicing fitness (ln) (37 °C): 0.236 ± 0.093

Sequence: CGGGAGCAAUAUUACGAUAU
- self-splicing fitness (ln) (30 °C): -3.65 ± 0.35

Sequence: CAUUAGCAAUAUUACGCUUA
- self-splicing fitness (ln) (30 °C): -2.22 ± 0.13
- self-splicing fitness (ln) (37 °C): -2.16 ± 0.15

Sequence: GCCGAGCAAUAUUACGCUGC
- self-splicing fitness (ln) (30 °C): -4.22 ± 0.36
- self-splicing fitness (ln) (37 °C): -2.81 ± 0.25

Sequence: CCUAAGCAAUAUUACGGCCC
- self-splicing fitness (ln) (30 °C): -2.37 ± 0.29

Sequence: GGUCAGCAAUAUUACGACAU
- self-splicing fitness (ln) (30 °C): 0.0683 ± 0.013
- self-splicing fitness (ln) (37 °C): 0.148 ± 0.033

Sequence: UUUUAGCAAUAUUACGACAA
- self-splicing fitness (ln) (30 °C): -0.409 ± 0.15
- self-splicing fitness (ln) (37 °C): -0.125 ± 0.17

Sequence: UGCGAGCAAUAUUACGUAGA
- self-splicing fitness (ln) (37 °C): -0.382 ± 0.22

Sequence: CCGAAGCAAUAUUACGUAUC
- self-splicing fitness (ln) (30 °C): -2.92 ± 0.24
- self-splicing fitness (ln) (37 °C): -3.03 ± 0.25

Sequence: AGCUAGCAAUAUUACGACCA
- self-splicing fitness (ln) (30 °C): -0.512 ± 0.17
- self-splicing fitness (ln) (37 °C): -0.124 ± 0.17

Sequence: GGAAAGCAAUAUUACGGAUA
- self-splicing fitness (ln) (30 °C): -2.59 ± 0.21
- self-splicing fitness (ln) (37 °C): -1.55 ± 0.19

Sequence: AACAAGCAAUAUUACGGAAU
- self-splicing fitness (ln) (30 °C): -2.64 ± 0.13
- self-splicing fitness (ln) (37 °C): -1.75 ± 0.14

Sequence: CUGUAGCAAUAUUACGCUGU
- self-splicing fitness (ln) (30 °C): -3.78 ± 0.36
- self-splicing fitness (ln) (37 °C): -2.53 ± 0.27

Sequence: CCCUAGCAAUAUUACGGUCG
- self-splicing fitness (ln) (30 °C): -2.02 ± 0.068
- self-splicing fitness (ln) (37 °C): -0.697 ± 0.092

Sequence: UGCUAGCAAUAUUACGCUUC
- self-splicing fitness (ln) (30 °C): -1.65 ± 0.17
- self-splicing fitness (ln) (37 °C): -0.347 ± 0.28

Sequence: ACGCAGCAAUAUUACGCUUG
- self-splicing fitness (ln) (30 °C): -3.56 ± 0.21
- self-splicing fitness (ln) (37 °C): -2.55 ± 0.2

Sequence: CUCCAGCAAUAUUACGCGUU
- self-splicing fitness (ln) (30 °C): -3.65 ± 0.17
- self-splicing fitness (ln) (37 °C): -2.01 ± 0.14

Sequence: CACAAGCAAUAUUACGUUGG
- self-splicing fitness (ln) (30 °C): -2.5 ± 0.091
- self-splicing fitness (ln) (37 °C): -1.76 ± 0.099

Sequence: GUUGAGCAAUAUUACGGCCC
- self-splicing fitness (ln) (30 °C): -1.28 ± 0.19
- self-splicing fitness (ln) (37 °C): -0.757 ± 0.29

Sequence: AGGCAGCAAUAUUACGGUGA
- self-splicing fitness (ln) (30 °C): -1.37 ± 0.14
- self-splicing fitness (ln) (37 °C): -0.711 ± 0.11

Sequence: GAAAAGCAAUAUUACGUGAU
- self-splicing fitness (ln) (30 °C): -2.38 ± 0.087
- self-splicing fitness (ln) (37 °C): -1.9 ± 0.11

Sequence: AGAGAGCAAUAUUACGCUUG
- self-splicing fitness (ln) (30 °C): -2.97 ± 0.3
- self-splicing fitness (ln) (37 °C): -2.46 ± 0.35

Sequence: GCCCAGCAAUAUUACGUCGG
- self-splicing fitness (ln) (30 °C): -3.13 ± 0.13
- self-splicing fitness (ln) (37 °C): -3.08 ± 0.2

Sequence: ACUAAGCAAUAUUACGGCGA
- self-splicing fitness (ln) (30 °C): -0.131 ± 0.1
- self-splicing fitness (ln) (37 °C): -0.411 ± 0.13

Sequence: CGAUAGCAAUAUUACGACCA
- self-splicing fitness (ln) (30 °C): -0.39 ± 0.46
- self-splicing fitness (ln) (37 °C): -0.619 ± 0.33

Sequence: CCACAGCAAUAUUACGAGUG
- self-splicing fitness (ln) (30 °C): -1.31 ± 0.057
- self-splicing fitness (ln) (37 °C): 0.0708 ± 0.062

Sequence: CGUGAGCAAUAUUACGUCAA
- self-splicing fitness (ln) (30 °C): -2.01 ± 0.24
- self-splicing fitness (ln) (37 °C): -1.35 ± 0.2

Sequence: GUCAAGCAAUAUUACGUACA
- self-splicing fitness (ln) (30 °C): -3.13 ± 0.14
- self-splicing fitness (ln) (37 °C): -1.73 ± 0.098

Sequence: GAUGAGCAAUAUUACGCGCA
- self-splicing fitness (ln) (30 °C): -1.91 ± 0.21
- self-splicing fitness (ln) (37 °C): -1.58 ± 0.19

Sequence: UCGCAGCAAUAUUACGUAUU
- self-splicing fitness (ln) (30 °C): -3.64 ± 0.15
- self-splicing fitness (ln) (37 °C): -1.85 ± 0.12

Sequence: CCAAAGCAAUAUUACGGGAC
- self-splicing fitness (ln) (30 °C): -4.28 ± 0.3
- self-splicing fitness (ln) (37 °C): -3.32 ± 0.46

Sequence: CAGCAGCAAUAUUACGUAAA
- self-splicing fitness (ln) (30 °C): -3.26 ± 0.14
- self-splicing fitness (ln) (37 °C): -1.95 ± 0.15

Sequence: ACCAAGCAAUAUUACGGGUA
- self-splicing fitness (ln) (30 °C): -1.98 ± 0.091
- self-splicing fitness (ln) (37 °C): -0.405 ± 0.072

Sequence: GGUAAGCAAUAUUACGGUUA
- self-splicing fitness (ln) (30 °C): -0.532 ± 0.12
- self-splicing fitness (ln) (37 °C): -0.38 ± 0.096

Sequence: UUUAAGCAAUAUUACGCUCU
- self-splicing fitness (ln) (30 °C): -1.26 ± 0.098
- self-splicing fitness (ln) (37 °C): -0.539 ± 0.11

Sequence: ACAAAGCAAUAUUACGGCUA
- self-splicing fitness (ln) (30 °C): -0.14 ± 0.054
- self-splicing fitness (ln) (37 °C): -0.0776 ± 0.062

Sequence: GCAAAGCAAUAUUACGUAGG
- self-splicing fitness (ln) (30 °C): -1.52 ± 0.05
- self-splicing fitness (ln) (37 °C): -0.897 ± 0.074

Sequence: CGAGAGCAAUAUUACGUCGG
- self-splicing fitness (ln) (30 °C): -2.51 ± 0.15
- self-splicing fitness (ln) (37 °C): -0.79 ± 0.15

Sequence: UUCAAGCAAUAUUACGUAAA
- self-splicing fitness (ln) (30 °C): -0.739 ± 0.086
- self-splicing fitness (ln) (37 °C): -0.541 ± 0.14

Sequence: UCGAAGCAAUAUUACGUUGC
- self-splicing fitness (ln) (30 °C): -3.36 ± 0.26

Sequence: CCCUAGCAAUAUUACGUGCU
- self-splicing fitness (ln) (30 °C): -2.99 ± 0.17
- self-splicing fitness (ln) (37 °C): -2.58 ± 0.24

Sequence: GAGAAGCAAUAUUACGGUGU
- self-splicing fitness (ln) (30 °C): -3.57 ± 0.15
- self-splicing fitness (ln) (37 °C): -1.58 ± 0.099

Sequence: GCCCAGCAAUAUUACGAUCU
- self-splicing fitness (ln) (30 °C): -1.36 ± 0.092
- self-splicing fitness (ln) (37 °C): -1.47 ± 0.12

Sequence: CGAUAGCAAUAUUACGUCCC
- self-splicing fitness (ln) (30 °C): -1.28 ± 0.23
- self-splicing fitness (ln) (37 °C): -0.717 ± 0.28

Sequence: UCCCAGCAAUAUUACGGGCA
- self-splicing fitness (ln) (30 °C): -0.512 ± 0.082
- self-splicing fitness (ln) (37 °C): -0.2 ± 0.097

Sequence: UGGUAGCAAUAUUACGACCA
- self-splicing fitness (ln) (30 °C): -1.07 ± 0.18
- self-splicing fitness (ln) (37 °C): -1.02 ± 0.2

Sequence: UGGCAGCAAUAUUACGCUCU
- self-splicing fitness (ln) (30 °C): -2.8 ± 0.2
- self-splicing fitness (ln) (37 °C): -1.37 ± 0.16

Sequence: ACUGAGCAAUAUUACGCGUC
- self-splicing fitness (ln) (30 °C): -4.21 ± 0.29
- self-splicing fitness (ln) (37 °C): -2.35 ± 0.21

Sequence: UGAUAGCAAUAUUACGCUAU
- self-splicing fitness (ln) (30 °C): -3.98 ± 0.47
- self-splicing fitness (ln) (37 °C): -2.04 ± 0.27

Sequence: GUGUAGCAAUAUUACGCGUG
- self-splicing fitness (ln) (30 °C): -3.82 ± 0.26
- self-splicing fitness (ln) (37 °C): -1.49 ± 0.15

Sequence: ACUCAGCAAUAUUACGAAUG
- self-splicing fitness (ln) (30 °C): -1.17 ± 0.11
- self-splicing fitness (ln) (37 °C): -0.992 ± 0.15

Sequence: CCCGAGCAAUAUUACGAAAA
- self-splicing fitness (ln) (30 °C): -2.67 ± 0.46
- self-splicing fitness (ln) (37 °C): -1.74 ± 0.42

Sequence: UUUUAGCAAUAUUACGCACA
- self-splicing fitness (ln) (30 °C): -0.201 ± 0.21
- self-splicing fitness (ln) (37 °C): -0.107 ± 0.19

Sequence: UUUAAGCAAUAUUACGUCAA
- self-splicing fitness (ln) (30 °C): -1.43 ± 0.16
- self-splicing fitness (ln) (37 °C): -0.273 ± 0.14

Sequence: UAACAGCAAUAUUACGGAUA
- self-splicing fitness (ln) (30 °C): -0.969 ± 0.088
- self-splicing fitness (ln) (37 °C): -0.486 ± 0.1

Sequence: UCUUAGCAAUAUUACGGAUA
- self-splicing fitness (ln) (30 °C): -2.68 ± 0.25
- self-splicing fitness (ln) (37 °C): -2.18 ± 0.24

From the supplement of paper PMC7877785
